This sample holds only a part of the variants without activity.
Key:
[1] = system: biotinyl-Met-oxazolone; assay: self-aminoacylation, catalytic enhancement (BMO) (fold over background); higher = more active; k-Seq, kA / k0A0; sequences stand for … in GGGAAUGGAUCCACAUCUACGAAUUC…UUCACUGCAGACUUGACGAAGCUG
In short: (§1)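 The uncatalyzed rate is the low-activity peak of a bimodal Gaussian fit, and catalytic enhancement is median kA divided by it. The kA values came from pseudo-first-order fits, with 1000 bootstraps, of per-sequence fraction reacted measured by streptavidin capture, triplicate qPCR and Illumina sequencing. Mutagenized RNA pools with a 21-nt variable region (0.43 μM) were reacted with each biotinyl-aminoacyl-oxazolone at 2–1250 μM in 50 μL HEPES/NaCl/KCl/MgCl2/CaCl2 buffer with 5% acetonitrile, pH 6.9–7.0, for 90 minutes at room temperature.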

[2] = system: biotinyl-Ile-oxazolone; assay: self-aminoacylation, catalytic enhancement (BIO) (fold over background); higher = more active; k-Seq, kA / k0A0; sequences stand for … in GGGAAUGGAUCCACAUCUACGAAUUC…UUCACUGCAGACUUGACGAAGCUG
In short: as §1

[3] = system: biotinyl-Trp-oxazolone; assay: self-aminoacylation, catalytic enhancement (BWO) (fold over background); higher = more active; k-Seq, kA / k0A0; sequences stand for … in GGGAAUGGAUCCACAUCUACGAAUUC…UUCACUGCAGACUUGACGAAGCUG
In short: as §1

[4] = system: biotinyl-Phe-oxazolone; assay: self-aminoacylation, catalytic enhancement (BFO) (fold over background); higher = more active; k-Seq, kA / k0A0; sequences stand for … in GGGAAUGGAUCCACAUCUACGAAUUC…UUCACUGCAGACUUGACGAAGCUG
In short: as §1

[5] = system: biotinyl-Leu-oxazolone; assay: self-aminoacylation, catalytic enhancement (BLO) (fold over background); higher = more active; k-Seq, kA / k0A0; sequences stand for … in GGGAAUGGAUCCACAUCUACGAAUUC…UUCACUGCAGACUUGACGAAGCUG
In short: as §1

[6] = system: biotinyl-Val-oxazolone; assay: self-aminoacylation, catalytic enhancement (BVO) (fold over background); higher = more active; k-Seq, kA / k0A0; sequences stand for … in GGGAAUGGAUCCACAUCUACGAAUUC…UUCACUGCAGACUUGACGAAGCUG
In short: as §1

Row | Sequence | self-aminoacylation [1] | self-aminoacylation [2] | self-aminoacylation [3] | self-aminoacylation [4] | self-aminoacylation [5] | self-aminoacylation [6]
1 | ACUCACCUAGGUCAUCGAGUG [Fam2.2 aminoacylation ribozyme variant] | 3.27 | 2.85 | 2.72 | 7.77 | 4.67 | 2.86
2 | AUUACCCUGGUGAUCGAGUGG [Fam2.1 aminoacylation ribozyme variant] | 1.79 | 1.11 | 1.82 | 3.23 | 1.63 | 1.26
3 | AAGUUUGCUAAUUCUCGCAAG [Fam3.1 aminoacylation ribozyme variant] | 1.06 | 1.26 | 2.64 | 0.747 | 1.08 | 0.999
4 | AUUGACCUAGGUCAUCCGGUG [Fam2.2 aminoacylation ribozyme variant] | 4.88 | 3.31 | 5.12 | 28.3 | 4.69 | 3.31
5 | CCACACUACAAGCAAUCUGUC [Fam1B.1 aminoacylation ribozyme variant] | 0.271 | 0.496 | 0.353 | 0.747 | 0.49 | 0.566
6 | CUCCUGCAAACAAUCGGUCUG [Fam1A.1 aminoacylation ribozyme variant] | 1.14 | 0.858 | 0.784 | 4 | 0.904 | 1.06
7 | UUUACCCUGGUCAUCGAGUGG [Fam2.1 aminoacylation ribozyme variant] | 31.5 | 8.85 | 29.3 | 154 | 27.3 | 9.95
8 | AUUGACCUAGGACAUCGGGUG [Fam2.2 aminoacylation ribozyme variant] | 4.19 | 3.72 | 4.97 | 19.3 | 4.56 | 3.53
9 | CUAAUUGAAACAAUCGGUCUG [Fam1A.1 aminoacylation ribozyme variant] | 0.944 | 0.78 | 0.64 | 0.706 | 0.752 | 0.775
10 | CCACACGUCAAGCAAUCAGUC [Fam1B.1 aminoacylation ribozyme variant] | 0.665 | 0.647 | 0.482 | 0.738 | 0.713 | 0.88
11 | AAGUUGGCUAAUAGUCGCAAU [Fam3.1 aminoacylation ribozyme variant] | 1.32 | 2.15 | 2.93 | 2.72 | 1.71 | 1.7
12 | CUACUUCAGACAAACGGUCUG [Fam1A.1 aminoacylation ribozyme variant] | 0.962 | 0.89 | 0.573 | 0.868 | 0.908 | 0.863
13 | AUUCACCUGGGUCAUCGGGGG [Fam2.2 aminoacylation ribozyme variant] | 4.26 | 4.25 | 3.71 | 21.4 | 5.65 | 4.1
14 | AAGCUUGCUAAUAGUCGCAAC [Fam3.1 aminoacylation ribozyme variant] | 1.28 | 1.86 | 1.32 | 2.11 | 1.44 | 1.24
15 | GUUCACCUUGGUCAUCGGGUG [Fam2.2 aminoacylation ribozyme variant] | 5.14 | 3.45 | 5.93 | 37.7 | 5.74 | 4.34
16 | CCACAUUUCAAGCAAUCGCUC [Fam1B.1 aminoacylation ribozyme variant] | 2 | 2.6 | 2.38 | 2.39 | 2.17 | 2.42
17 | CUUACCCUGGUCAUCGAGUGU [Fam2.1 aminoacylation ribozyme variant] | 26.4 | 8.72 | 25.6 | 102 | 24.6 | 9.84
18 | AACUUUGCUAAUAGUCGCAAU [Fam3.1 aminoacylation ribozyme variant] | 2.79 | 2.94 | 2.77 | 6.33 | 3.35 | 2.51
19 | AUCCACCUAGGUUAUCGGGUG [Fam2.2 aminoacylation ribozyme variant] | 4.13 | 3.44 | 5.62 | 32.1 | 4.84 | 4.45
20 | AUUACCCUGGUCCUCGAGCGA [Fam2.1 aminoacylation ribozyme variant] | 1.97 | 1.46 | 1.68 | 3.24 | 1.25 | 1.77
21 | AGUAACCUGGUCAUCGAGUGA [Fam2.1 aminoacylation ribozyme variant] | 5.06 | 3.32 | 4.62 | 16.8 | 5.02 | 3.25
22 | AUUACCCUUGUCAUCGAGUGU [Fam2.1 aminoacylation ribozyme variant] | 2.89 | 1.71 | 3.65 | 8.43 | 3.08 | 2.03
23 | AUUCACCUAGGUAAUCCGGUG [Fam2.2 aminoacylation ribozyme variant] | 3.77 | 2.33 | 4.8 | 30.4 | 4.57 | 2.39
24 | AAGUUUGCUAUUAGUCGCCAG [Fam3.1 aminoacylation ribozyme variant] | 0.864 | 1.01 | 0.849 | 0.947 | 1.12 | 0.818
25 | AACUUUGCUAAUAGUCCCAAG [Fam3.1 aminoacylation ribozyme variant] | 1.56 | 1.92 | 1.51 | 3.69 | 1.6 | 1.64
26 | AUUACCCUGGCCACCGAGUGA [Fam2.1 aminoacylation ribozyme variant] | 4.99 | 2.92 | 3.89 | 35.6 | 5.59 | 3.34

Row | Sequence | self-aminoacylation [1] | self-aminoacylation [2] | self-aminoacylation [3] | self-aminoacylation [4] | self-aminoacylation [5] | self-aminoacylation [6]
27 | CUACUUCAAACAAUCGCUAUG [Fam1A.1 aminoacylation ribozyme variant] | 0.958 | 0.99 | 0.755 | 1.32 | 0.878 | 0.973
28 | ACUCACCUAGGUCAUCGGGUA [Fam2.2 aminoacylation ribozyme variant] | 19.9 | 11.4 | 14.9 | 157 | 27 | 10.1
29 | AAGUUUGCUAAUAGUCAUAAG [Fam3.1 aminoacylation ribozyme variant] | 1.27 | 1.44 | 5.59 | 17.9 | 1.15 | 1.25
30 | CCACACUUCAAGCAAUUGGUC [Fam1B.1 aminoacylation ribozyme variant] | 0.625 | 0.702 | 0.858 | 1.43 | 0.594 | 0.707
31 | CUACUGCCAACAAUCGGUCUG [Fam1A.1 aminoacylation ribozyme variant] | 0.773 | 0.744 | 0.531 | 0.775 | 0.64 | 0.744
32 | AUCCACCUAGGUCACCGGGUG [Fam2.2 aminoacylation ribozyme variant] | 5.52 | 4.14 | 6.67 | 40.4 | 6.1 | 4.47
33 | AUUACCCUGGUAUUCGAGUGA [Fam2.1 aminoacylation ribozyme variant] | 7.43 | 3.56 | 9.54 | 42.4 | 7.89 | 3.65
34 | CUUACCCUGGUCAUCGAAUGA [Fam2.1 aminoacylation ribozyme variant] | 0.915 | 1.01 | 0.668 | 1.02 | 0.937 | 0.985
35 | AUUACCCUGAGCAUCGAGUGA [Fam2.1 aminoacylation ribozyme variant] | 4.43 | 2.06 | 4.96 | 8.97 | 3.99 | 2.45
36 | CCACACUUCAAGCAAUCGGGA [Fam1B.1 aminoacylation ribozyme variant] | 1.51 | 1.55 | 1.87 | 1.46 | 1.04 | 1.8
37 | ACUACCCUGUUCAUCGAGUGA [Fam2.1 aminoacylation ribozyme variant] | 3.17 | 2.28 | 5.04 | 6.68 | 3.27 | 2.33
38 | CUCCACUUCAAGCAAUCGGUC [Fam1B.1 aminoacylation ribozyme variant] | 1.27 | 1.37 | 27.6 | 50.4 | 2.07 | 1.45
39 | GUUCACCUAGGUCAUCGGGCG [Fam2.2 aminoacylation ribozyme variant] | 4.01 | 2.98 | 4.17 | 4.6 | 5.06 | 3.11
40 | AAGUCUGCUAAUAGUCCCAAG [Fam3.1 aminoacylation ribozyme variant] | 1.38 | 0.928 | 2.43 | 7.42 | 1.15 | 0.893
41 | ACUCACCUUGGUCAUCGGGUG [Fam2.2 aminoacylation ribozyme variant] | 6.92 | 4.9 | 9.04 | 37.8 | 7.85 | 5.78
42 | CUUCACCUAGGUCAUGGGGUG [Fam2.2 aminoacylation ribozyme variant] | 2.84 | 2.5 | 3.7 | 11.6 | 4.06 | 2.7
43 | CCACACAUCAAGCAAUCGGAC [Fam1B.1 aminoacylation ribozyme variant] | 0.748 | 0.897 | 0.906 | 0.446 | 0.808 | 1.03
44 | AUUCAACUAGGUCAUUGGGUG [Fam2.2 aminoacylation ribozyme variant] | 3.46 | 2.3 | 3.66 | 23.7 | 4.71 | 2.19
45 | CUACUACAAACAAGCGGUCUG [Fam1A.1 aminoacylation ribozyme variant] | 1.1 | 1.11 | 0.883 | 0.606 | 1.25 | 1.2
46 | CCACAUUUCAAGGAAUCGGUC [Fam1B.1 aminoacylation ribozyme variant] | 1.34 | 1.52 | 1.28 | 1.67 | 1.49 | 1.31
47 | AUUACCCUAUUCAUCGAGUGA [Fam2.1 aminoacylation ribozyme variant] | 4.25 | 2.37 | 6.86 | 17.3 | 4.15 | 2.66
48 | AUUUACUUAGGUCAUCGGGUG [Fam2.2 aminoacylation ribozyme variant] | 4.85 | 2.91 | 4.45 | 32.2 | 5.78 | 3.18
49 | AUUACCCUGGCCAUCGAGUGU [Fam2.1 aminoacylation ribozyme variant] | 3.06 | 1.42 | 2.51 | 2.1 | 2.04 | 1.93
50 | AAGUUUGCUAAUAAUGGCAAG [Fam3.1 aminoacylation ribozyme variant] | 0.599 | 0.644 | 0.585 | 0.786 | 0.479 | 0.727
51 | CCACGCUUCAAGCAAUCCGUC [Fam1B.1 aminoacylation ribozyme variant] | 0.507 | 0.754 | 1.07 | 1.34 | 0.648 | 1.1

From the supplement of paper PMC9233669
